Reference: patent publication US20220054617A1 (REGENTS OF THE UNIVERSITY OF MINNESOTA, published 2022)

B1: DENV-1 antigen (other)
chain: SNALKGVSYVMCTGSFKLEKEVAETQHGTVLVQVKYEGTDAPCKIPISTQDEKGVTQNGRLITANPIVTDKEKPVNIETEPPFGESYIVIGAGEKALKLSWFK
notes: also called DENV-1 Ag
B2: DENV-3 antigen (other)
chain: SNALKGMSYAMCTNTFVLKKEVSETQHGTILIKVEYKGEDAPCKIPFSTEDGQGKAHNGRLITANPVVTKKEEPVNIEAEPPFGESNIVIGIGDNALKINWYKK
B3: DENV-4 antigen (other)
chain: SNAIKGMSYTMCSGKFSIDKEMAETQHGTTVVKVKYEGTGAPCKVPIEIRDVNKEKVVGRIISSTPFAENTNSVTNIELEPPFGDSYIVIGVGDSALTLHWFR

What was measured:
Test in all cases: size exclusion chromatography of the tetravalent antigen mixture without adjuvant
DENV-4 antigen = biological target: B3
DENV-3 antigen = biological target: B2
DENV-2 antigen = DENV-2 antigen (dengue virus serotype 2 (DENV-2), UniProt P14337 573-674)

B1
binding result (DENV-4 antigen): no binding
binding result (DENV-3 antigen): no binding
binding result (DENV-2 antigen): no binding

B2
binding result (DENV-2 antigen): no binding

B3
binding result (DENV-3 antigen): no binding
binding result (DENV-2 antigen): no binding
